# Test results from paper PMC6706441, “B1 oligomerization regulates PML nuclear body biogenesis and leukemogenesis” (Nature Communications, 2019).
# B1: full-length PML isoform IV, wild type (mammalian two-hybrid fusions) [human (by the printed UniProt code P29590-5)] / full-length PML isoform IV, wild type (mammalian two-hybrid fusions) [human (by the printed UniProt code … (parent)
# chain 1: MEPAPARSPRPQQDPARPQEPTMPPPETPSEGRQPSPSPSPTERAPASEEEFQFLRCQQCQAEAKCPKLLPCLHTLCSGCLEASGMQCPICQAPWPLGADTPALDNVFFESLQRRLSVYRQIVDAQAVCTRCKESADFWCFECEQLLCAKCFEAHQWFLKHEARPLAELRNQSVREFLDGTRKTNNIFCSNPNHRTPTLTSIYCRGCSKPLCCSCALLDSSHSELKCDISAEIQQRQEELDAMTQALQEQDSAFGAVHAQMHAAVGQLGRARAETEELIRERVRQVVAHVRAQERELLEAVDARYQRDYEEMASRLGRLDAVLQRIRTGSALVQRMKCYASDQEVLDMHGFLRQALCRLRQEEPQSLQAAVRTDGFDEFKVRLQDLSSCITQGKDAAVSKKASPEAASTPRDPIDVDLPEEAERVKAQVQALGLAEAQPMAVVQSVPGAHPVPVYAFSIKGPSYGEDVSNTTTAQKRKCSQTQCPRKVIKMESEEGKEARLARSSPEQPRPSTSKAVSPPHLDGPPSPRSPVIGSEVFLPNSNHVASGAGEAEERVVVISSSEDSDAENSSSRELDDSSSESSDLQLEGPSTLRVLDENLADPQAEDRPLVFFDLKIDNESGFSWGYPHPFLI
# chain 2: B1 chain 1
# Variants of: B1
# Test: mammalian two-hybrid assay
# Settings: with full-length PML isoform IV, parent: 38, read off a plot, scale: fold change
row,response,Variant
1,3.2,chain 1 W157E
2,2.8,chain 1 F158E
3,21,chain 1 I122P V123P
